IntAct's records for PubMed 25512093

Target: bicd2_human BICD2 (UniProt Q8TD16)
Sequence of UniProt Q8TD16 (Q8TD16 whole entry): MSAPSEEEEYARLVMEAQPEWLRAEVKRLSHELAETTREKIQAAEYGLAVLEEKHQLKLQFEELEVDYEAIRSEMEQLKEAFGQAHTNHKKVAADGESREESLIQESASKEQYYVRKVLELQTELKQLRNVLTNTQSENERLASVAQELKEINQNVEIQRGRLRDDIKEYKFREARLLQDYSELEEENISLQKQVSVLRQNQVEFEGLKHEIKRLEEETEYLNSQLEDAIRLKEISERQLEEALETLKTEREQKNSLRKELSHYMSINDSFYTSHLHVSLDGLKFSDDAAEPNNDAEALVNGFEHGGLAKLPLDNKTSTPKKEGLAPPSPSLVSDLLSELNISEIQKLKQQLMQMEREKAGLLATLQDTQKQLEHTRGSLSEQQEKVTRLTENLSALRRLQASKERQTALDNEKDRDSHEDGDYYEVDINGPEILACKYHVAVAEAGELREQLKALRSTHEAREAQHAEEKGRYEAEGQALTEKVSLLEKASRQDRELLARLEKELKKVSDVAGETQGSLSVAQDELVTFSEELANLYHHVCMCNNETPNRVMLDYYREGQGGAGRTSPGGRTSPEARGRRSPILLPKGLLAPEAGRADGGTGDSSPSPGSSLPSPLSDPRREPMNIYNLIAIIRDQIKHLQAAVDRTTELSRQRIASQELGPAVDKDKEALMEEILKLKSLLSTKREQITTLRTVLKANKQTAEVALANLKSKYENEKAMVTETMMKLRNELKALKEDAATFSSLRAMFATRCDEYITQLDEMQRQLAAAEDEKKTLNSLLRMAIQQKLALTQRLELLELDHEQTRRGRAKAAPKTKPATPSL

Substance	effect of a mutation on the interaction
Cytoplasmic dynein 1 heavy chain 1 (Homo sapiens), Q14204 R264L	increasing interaction strength
Cytoplasmic dynein 1 heavy chain 1 (Homo sapiens), Q14204 R598C	increasing interaction strength
